Reference: article PMC5587726

Tests used:
Assay in all cases: X-ray crystallography; UMPNPP, Mg2+; Crystals: DNA mixed with ~10 mg/mL protein (4:1 molar) on ice 1 h; cryoprotectant/soak 100 mM HEPES pH 7.5, 20% PEG 4000, 10 mM MgCl2, 50 mM NaCl, 5% glycerol
hPol μΔ2 W434A = hPol μΔ2 W434A (human, UniProt Q9NP87 132-397+=G+411-494, W434A;internal_change)
hPol μΔ2 G433A = hPol μΔ2 G433A (human, UniProt Q9NP87 132-397+=G+411-494, G433A;internal_change)
[1] = biological target: hPol μΔ2 wildtype (DNA polymerase mu catalytic domain, Loop2 deleted) (human, UniProt Q9NP87 132-397+=G+411-494, internal_change)

Measured: binding result

hPol μΔ2 W434A, sequence (Q9NP87 other isoform, or with tags, fused parts or gaps W434A/| W434A W434A): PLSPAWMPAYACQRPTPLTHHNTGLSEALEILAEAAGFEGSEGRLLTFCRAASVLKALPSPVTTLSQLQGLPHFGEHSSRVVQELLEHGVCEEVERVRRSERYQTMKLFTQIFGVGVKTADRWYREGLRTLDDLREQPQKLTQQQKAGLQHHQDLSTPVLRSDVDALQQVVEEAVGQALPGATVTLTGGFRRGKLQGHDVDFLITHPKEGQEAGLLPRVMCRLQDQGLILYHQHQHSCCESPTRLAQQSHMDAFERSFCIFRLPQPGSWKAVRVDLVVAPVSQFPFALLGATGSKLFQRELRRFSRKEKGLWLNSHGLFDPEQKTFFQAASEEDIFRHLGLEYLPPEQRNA
hPol μΔ2 wildtype (DNA polymerase mu catalytic domain, Loop2 deleted), sequence (Q9NP87 other isoform, or with tags, fused parts or gaps | mutant): as the sequence (Q9NP87 other isoform, or with tags, fused parts or gaps W434A/| W434A W434A) above, with A291W counted along it
hPol μΔ2 G433A, sequence (Q9NP87 other isoform, or with tags, fused parts or gaps G433A/| G433A G433A): as the sequence (Q9NP87 other isoform, or with tags, fused parts or gaps W434A/| W434A W434A) above, with G290A, A291W counted along it

B1: 1-nt gapped DNA (pre-catalytic) (dsDNA)
DNA 1: CGGCATACG
DNA 2: CGTA
DNA 3: GCCG
modifications: 5'-phosphate on downstream primer GCCG
binds: all assays above
